Bridges are numbered along the chain shown (N, C = ends). Where no end group is shown, it is not given here.
Target: T1, amilorid-sensitive Sodium Ion Channel (ENaC) (Homo sapiens, UniProt P37088)
T1 construct: Macroscopic Sodium Ion Currents were derived from human lung epithelian cells A549; endogenous in cells; host or cells: A549 human lung epithelial cells
T1 sequence (P37088 1-669): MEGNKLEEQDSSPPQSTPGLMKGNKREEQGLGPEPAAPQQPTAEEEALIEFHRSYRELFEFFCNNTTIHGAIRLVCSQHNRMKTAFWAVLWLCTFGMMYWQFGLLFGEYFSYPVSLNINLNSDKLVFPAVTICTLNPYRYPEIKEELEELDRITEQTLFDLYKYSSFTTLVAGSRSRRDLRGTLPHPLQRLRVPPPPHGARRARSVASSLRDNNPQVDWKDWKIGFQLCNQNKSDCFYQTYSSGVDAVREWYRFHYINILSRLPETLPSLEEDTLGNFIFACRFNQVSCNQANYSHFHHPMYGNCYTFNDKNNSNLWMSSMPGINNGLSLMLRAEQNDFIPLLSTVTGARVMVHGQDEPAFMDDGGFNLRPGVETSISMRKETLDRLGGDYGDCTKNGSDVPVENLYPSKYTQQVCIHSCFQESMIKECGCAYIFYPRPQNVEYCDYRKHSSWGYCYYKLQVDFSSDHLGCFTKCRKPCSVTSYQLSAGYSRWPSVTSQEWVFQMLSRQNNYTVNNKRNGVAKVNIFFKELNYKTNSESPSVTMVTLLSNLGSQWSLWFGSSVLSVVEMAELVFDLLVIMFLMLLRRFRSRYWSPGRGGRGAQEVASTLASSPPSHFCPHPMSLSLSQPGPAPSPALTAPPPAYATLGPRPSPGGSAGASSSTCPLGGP
T1 sequence (P51168 1-640 partner): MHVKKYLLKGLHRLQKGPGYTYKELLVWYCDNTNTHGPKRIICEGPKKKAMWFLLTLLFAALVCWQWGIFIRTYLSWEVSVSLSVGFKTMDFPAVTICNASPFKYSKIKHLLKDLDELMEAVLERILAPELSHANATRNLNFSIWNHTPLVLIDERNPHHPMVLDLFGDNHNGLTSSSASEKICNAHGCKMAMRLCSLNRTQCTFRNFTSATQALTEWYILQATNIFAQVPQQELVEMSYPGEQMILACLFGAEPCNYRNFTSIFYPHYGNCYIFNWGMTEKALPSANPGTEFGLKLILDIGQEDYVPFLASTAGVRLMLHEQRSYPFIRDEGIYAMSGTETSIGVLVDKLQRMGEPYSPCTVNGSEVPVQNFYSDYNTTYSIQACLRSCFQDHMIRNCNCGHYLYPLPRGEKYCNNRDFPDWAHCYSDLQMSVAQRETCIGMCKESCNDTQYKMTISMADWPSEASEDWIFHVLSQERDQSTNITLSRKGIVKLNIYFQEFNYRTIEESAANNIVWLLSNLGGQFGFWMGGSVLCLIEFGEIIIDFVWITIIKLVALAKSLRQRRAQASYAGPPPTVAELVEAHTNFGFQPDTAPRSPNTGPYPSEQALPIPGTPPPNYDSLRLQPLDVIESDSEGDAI
T1 sequence (P51170 1-649 partner): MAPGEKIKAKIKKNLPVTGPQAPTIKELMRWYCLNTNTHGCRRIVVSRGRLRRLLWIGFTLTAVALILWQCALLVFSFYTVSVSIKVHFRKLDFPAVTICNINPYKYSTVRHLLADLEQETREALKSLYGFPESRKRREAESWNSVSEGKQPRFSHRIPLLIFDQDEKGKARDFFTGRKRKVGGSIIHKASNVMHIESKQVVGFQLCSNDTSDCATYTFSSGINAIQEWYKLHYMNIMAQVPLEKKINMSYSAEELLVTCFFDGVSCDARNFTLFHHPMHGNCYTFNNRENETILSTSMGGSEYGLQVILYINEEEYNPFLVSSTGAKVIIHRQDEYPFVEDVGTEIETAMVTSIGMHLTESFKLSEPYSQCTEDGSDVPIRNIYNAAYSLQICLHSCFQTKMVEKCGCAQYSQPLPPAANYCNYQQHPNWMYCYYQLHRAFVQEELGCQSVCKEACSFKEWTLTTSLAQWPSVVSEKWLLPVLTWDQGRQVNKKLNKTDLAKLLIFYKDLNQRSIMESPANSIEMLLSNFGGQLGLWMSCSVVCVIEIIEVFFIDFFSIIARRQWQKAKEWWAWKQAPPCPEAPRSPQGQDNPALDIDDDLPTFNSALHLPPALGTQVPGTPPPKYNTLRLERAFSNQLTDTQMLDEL
Test: Patch Clamp whole cell sodium current in deglycosylated (PNGase F) and untreated A549 cells
Assay type: cell-based
Conditions: peptide 240 nM, Eh = −100 mV
Protocol: […] After control recordings, 240 nM of the peptide of amino acid sequence SEQ ID NO:1 was added to the bath solution. […] Whole cell currents were recorded at Eh=−100 mV. The concentration of the peptides of amino acid sequence SEQ ID NO:1 to SEQ ID NO:7 in the bath solution was 240 nM.

Compound | whole cell sodium current (no pretreatment with PNGase F) | whole cell sodium current (pre-treatment with PNGase F) | whole cell sodium current (no pretreatment with PNGase F, listed as SEQ ID NO:7)
C[C@@H]1NC(=O)CNC(=O)[C@H](CCC(=O)O)NC(=O)[C@@H]2CCCN2C(=O)[C@H]([C@@H](C)O)NC(=O)[C@H](CCC(=O)O)NC(=O)[C@H](CCCNC(=N)N)NC(=O)[C@H](CCC(N)=O)NC(=O)CNC(=O)[C@@H](N)CSSC[C@@H](C(=O)O)NC(=O)[C@H](Cc2ccc(O)cc2)NC(=O)[C@H](Cc2c[nH]c3ccccc23)NC(=O)[C@@H]2CCCN2C(=O)[C@H](CCCCN)NC(=O)[C@H](C)NC(=O)[C@H](CCC(=O)O)NC1=O [SEQ ID NO: 1] | 1073.3 ± 15.1 pA | 19.6 pA (n = 3) | –
Cyclo(CGQREAPAGAAAKPWYC) (disulfide 1-17) [SEQ ID NO: 7, reference compound] | No activity | No activity | no activity

Reference: patent US10711041B2, “Lyophilisate containing a cyclic peptide of formula X1-[sequence]-X2” (priority 2013, dated 2020)
